From publication PMC9381089 (Molecular Cancer Therapeutics, 2022)

B1: ABBV-011 (SC17 conjugated to the calicheamicin linker drug LD19.10) (antibody, V domains shown)
VH: EVQLVQSGAEVKKPGESLKISCKGSGYSFTSSWINWVRQMPGKGLEWMGRIYPGEGDTNYSGNFEGQVTISADKSISTAYLQWSSLKASDTAMYYCTRGLVMDYWGQGTLVTVSS
VL: EIVLTQSPATLSLSPGERATLSCRASQSVDYNGISYMHWYQQKPGQAPRLLIYAASNVQSGIPARFSGSGSGTDFTLTISSLEPEDFAVYYCQQSIEDPPTFGGGTKVEIK
B2: SC17, humanized anti-SEZ6 monoclonal antibody (antibody, V domains shown)
VH: B1 VH
VL: B1 VL

What was measured:
[1] = target: cynomolgus monkey SEZ6, ectopically expressed on 293T cells (Macaca fascicularis, UniProt A0A2K5WPJ4); experiment: flow cytometry on cells
[2] = target: murine SEZ6, ectopically expressed on 293T cells (Mus musculus (Mouse)., UniProt Q7TSK2); experiment: flow cytometry on cells
Sequence of murine SEZ6, ectopically expressed on 293T cells (Q7TSK2 20-991): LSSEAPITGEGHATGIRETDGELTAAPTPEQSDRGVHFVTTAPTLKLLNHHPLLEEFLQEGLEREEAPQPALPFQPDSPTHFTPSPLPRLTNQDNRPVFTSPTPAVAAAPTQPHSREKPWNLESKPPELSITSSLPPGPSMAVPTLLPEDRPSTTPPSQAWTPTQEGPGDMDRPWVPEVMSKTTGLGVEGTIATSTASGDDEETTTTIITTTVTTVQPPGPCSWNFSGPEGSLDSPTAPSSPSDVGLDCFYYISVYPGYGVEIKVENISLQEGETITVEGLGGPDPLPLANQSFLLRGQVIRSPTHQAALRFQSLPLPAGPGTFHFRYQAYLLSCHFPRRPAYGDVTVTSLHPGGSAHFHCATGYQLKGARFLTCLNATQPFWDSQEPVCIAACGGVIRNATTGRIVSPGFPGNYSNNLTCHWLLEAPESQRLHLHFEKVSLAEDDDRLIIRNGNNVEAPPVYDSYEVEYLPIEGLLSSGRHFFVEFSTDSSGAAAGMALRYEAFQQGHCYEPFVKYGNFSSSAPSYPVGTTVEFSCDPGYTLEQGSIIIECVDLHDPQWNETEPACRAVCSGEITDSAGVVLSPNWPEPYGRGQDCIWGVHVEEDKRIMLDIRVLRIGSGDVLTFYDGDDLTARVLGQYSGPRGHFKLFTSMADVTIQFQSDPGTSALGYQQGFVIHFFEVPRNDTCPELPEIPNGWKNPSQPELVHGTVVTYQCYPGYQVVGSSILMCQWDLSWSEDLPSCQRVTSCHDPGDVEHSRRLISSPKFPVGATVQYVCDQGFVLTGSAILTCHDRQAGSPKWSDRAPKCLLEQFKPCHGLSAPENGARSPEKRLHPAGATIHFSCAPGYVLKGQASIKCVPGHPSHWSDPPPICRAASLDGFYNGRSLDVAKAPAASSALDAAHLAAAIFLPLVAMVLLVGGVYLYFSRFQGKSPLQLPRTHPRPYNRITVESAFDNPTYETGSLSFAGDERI

| Binder | binding result [1] | binding result [2] |
| --- | --- | --- |
| B1 | binds | binds |
| B2 | binds |  |
